This note sets out measurements from patent US20030194404A1 (SCHERING, published 2003).

The target in test [1] is T1, recombinant human IL-5 (human, UniProt P05113 20-134).
T1 construct: also called rhIL-5; interleukin-5
T1 sequence (looked up): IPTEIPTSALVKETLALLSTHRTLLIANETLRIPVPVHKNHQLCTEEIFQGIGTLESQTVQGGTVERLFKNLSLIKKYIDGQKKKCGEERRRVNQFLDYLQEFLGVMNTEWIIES
Briefly: KinExA 3000 kinetic exclusion assay, Dual Curve (Unknown Antigen) method. Here is the method: (§1) The KinExA uses the principle of the Kinetic Exclusion Assay method based on measuring the concentration of uncomplexed antibody in a mixture of antibody, antigen and antibody-antigen complex. The concentration of free antibody is measured by exposing the mixture to a solid-phase immobilized antigen for a very brief period of time. In practice, this is accomplished by flowing the solution phase antigen-antibody mixture past antigen coated particles trapped in a flow cell. Data, generated by the instrument are analyzed using custom software. Equilibrium constants are calculated using a mathematical theory based on the following assumptions:
(§2) All experimental procedures were performed according to the KinExA 3000™ Manual. All runs were done in duplicate.
(§3) The antibody molecular weight used for calculation was 150 Kda.
In general terms: In KinExA the mixture passes briefly over coated beads that capture the unbound partner.

For test [2], the target named is T1, recombinant human IL-5. Briefly: cell-based or functional assay.
The target in another test is T2, murine IL-5 (murine, UniProt P04401 21-133).
T2 sequence (looked up): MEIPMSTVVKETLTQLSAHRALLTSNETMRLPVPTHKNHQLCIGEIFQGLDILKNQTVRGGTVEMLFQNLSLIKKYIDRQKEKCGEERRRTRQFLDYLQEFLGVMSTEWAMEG
Briefly: cell-based or functional assay.

In test [3] the target is T1, recombinant human IL-5. Kind of test: KinExA 3000 kinetic exclusion assay, Dual Curve analysis (Standard mode), 0.1 and 0.01 nM antibody. Here is the method:
as §1, §2, §3

By Kd is commonly meant the concentration at which binding is half-saturated.

B1: human monoclonal antibody 20.13.3 (antibody, human IgG4, kappa, V domains shown)
VH: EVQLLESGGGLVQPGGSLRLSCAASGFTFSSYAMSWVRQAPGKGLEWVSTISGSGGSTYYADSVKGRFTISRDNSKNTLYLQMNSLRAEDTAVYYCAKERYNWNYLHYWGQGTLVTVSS
VL: DIQMTQSPSSLSASVGDRVTITCQASQDIINYLNWYQQKPGKAPKLLIYSASNLETRVPSRFSGSGSGTDFTFTISSLQPEDIATYYCQQYDNHPLTFGGGTKVEIRR
Consider B1, for which the Kd in the test with recombinant human IL-5 [1] turned out to be 0.0195 nM; with recombinant human IL-5 [3], 0.015 nM. Further, the “IC50, TF-1 anti-proliferation assay” value amounted to 250 pM with recombinant human IL-5 [2] and 380 pM in the test with murine IL-5.
